Data: the supplement of paper PMC7125110
± gives the standard error. This sample holds only a part of the variants without activity.

B1: glmS ribozyme (parent)
chain: AUAAAAGCGCCAGAACUACAGAAAUGUAGUUGACGAGGAGGAGGUUUAUCGAAUUUUCGGCGGAUGCCUCCAAA

Key:
Settings in all cases: with glucosamine-6-phosphate
[1] = variants of: B1; experiment: self-cleavage kobs at 40 uM GlcN6P; higher = faster cleavage; RNA array
Procedure, shortened: (§1)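 Barcoded glmS ribozyme variants on sequenced MiSeq chips were transcribed in situ by E. coli RNA polymerase and tracked through a hybridised Cy3 probe at 37 °C. Glucosamine-6-phosphate (40 μM to 10 mM) in HEPES/KCl/Mg(OAc)2 buffer was flowed in, and tiles were imaged over ~14 h. Signals were normalised to baseline and to non-cleaving reference variants; per-tile medians were fit to one- or two-exponential decays to give kobs. kcat and KM came from weighted Michaelis–Menten fits across concentrations.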

[2] = variants of: B1; experiment: self-cleavage kobs at 160 uM GlcN6P; higher = faster cleavage; RNA array
Procedure, shortened: as §1

[3] = variants of: B1; experiment: self-cleavage kobs at 640 uM GlcN6P; higher = faster cleavage; RNA array
Procedure, shortened: as §1

[4] = variants of: B1; experiment: self-cleavage kobs at 10000 uM GlcN6P; higher = faster cleavage; RNA array
Procedure, shortened: as §1

[5] = variants of: B1; experiment: self-cleavage kobs at 2500 uM GlcN6P; higher = faster cleavage; RNA array
Procedure, shortened: as §1

Variant	self-cleavage kobs at 40 uM GlcN6P [1]	self-cleavage kobs at 160 uM GlcN6P [2]	self-cleavage kobs at 640 uM GlcN6P [3]	self-cleavage kobs at 10000 uM GlcN6P [4]	self-cleavage kobs at 2500 uM GlcN6P [5]
G9C C70A	< 1e-05 s⁻¹	< 1e-05 s⁻¹	< 1e-05 s⁻¹	< 1e-05 s⁻¹	–
A6C G13C C68G	< 1e-05 s⁻¹	–	–	–	< 1e-05 s⁻¹
A33C G51C G63C A64U	< 1e-05 s⁻¹	< 1e-05 s⁻¹	< 1e-05 s⁻¹	< 1e-05 s⁻¹	–
A42C G43C C50U C67U	< 1e-05 s⁻¹	–	–	–	–
G9C G44A	< 1e-05 s⁻¹	< 1e-05 s⁻¹	< 1e-05 s⁻¹	< 1e-05 s⁻¹	< 1e-05 s⁻¹
G43U G62U	< 1e-05 s⁻¹	–	–	< 1e-05 s⁻¹	< 1e-05 s⁻¹
A48G U65A C68A	0.000357 ± 0.00011 s⁻¹	–	–	0.000113 ± 3.1e-05 s⁻¹	–
G9A C58U	< 1e-05 s⁻¹	< 1e-05 s⁻¹	< 1e-05 s⁻¹	< 1e-05 s⁻¹	< 1e-05 s⁻¹
U31A U47G C70U	0.000179 ± 3.9e-05 s⁻¹	0.000219 ± 4.3e-05 s⁻¹	0.000928 ± 0.00014 s⁻¹	0.00277 ± 0.00063 s⁻¹	0.000719 ± 0.00018 s⁻¹
U54A U55G	0.00074 ± 7.7e-05 s⁻¹	0.00127 ± 0.00022 s⁻¹	0.00651 ± 0.0008 s⁻¹	0.0328 ± 0.011 s⁻¹	0.0121 ± 0.0021 s⁻¹
A12U G13A U47C A53G	< 1e-05 s⁻¹	–	–	–	–
A33G U65A	< 1e-05 s⁻¹	–	< 1e-05 s⁻¹	< 1e-05 s⁻¹	< 1e-05 s⁻¹
G40C U69G	< 1e-05 s⁻¹	–	< 1e-05 s⁻¹	< 1e-05 s⁻¹	–
G7C G41U C50G	< 1e-05 s⁻¹	–	–	–	–
A42C A48C	< 1e-05 s⁻¹	–	< 1e-05 s⁻¹	< 1e-05 s⁻¹	< 1e-05 s⁻¹
A6C A15U G40A	< 1e-05 s⁻¹	–	–	< 1e-05 s⁻¹	< 1e-05 s⁻¹
A36U U47C	< 1e-05 s⁻¹	< 1e-05 s⁻¹	< 1e-05 s⁻¹	< 1e-05 s⁻¹	–
A6G U46G C50G U65G C70A	< 1e-05 s⁻¹	–	–	–	–
A12G A42C U46C C61G	< 1e-05 s⁻¹	–	–	< 1e-05 s⁻¹	–
U31G A39G A53G	0.000493 ± 0.00012 s⁻¹	–	0.00385 ± 0.0009 s⁻¹	–	0.0115 ± 0.0049 s⁻¹
G7A G41C	< 1e-05 s⁻¹	< 1e-05 s⁻¹	< 1e-05 s⁻¹	–	< 1e-05 s⁻¹
G32A C50G G60A C68G	6.94e-05 ± 1.7e-05 s⁻¹	–	–	5.25e-05 ± 1.1e-05 s⁻¹	–
G13A A33C C50A C71U	< 1e-05 s⁻¹	–	–	–	< 1e-05 s⁻¹
A33C G63U G66U	< 1e-05 s⁻¹	–	< 1e-05 s⁻¹	< 1e-05 s⁻¹	–
G13C C61U	< 1e-05 s⁻¹	< 1e-05 s⁻¹	< 1e-05 s⁻¹	–	< 1e-05 s⁻¹

Variant	self-cleavage kobs at 40 uM GlcN6P [1]	self-cleavage kobs at 160 uM GlcN6P [2]	self-cleavage kobs at 640 uM GlcN6P [3]	self-cleavage kobs at 10000 uM GlcN6P [4]	self-cleavage kobs at 2500 uM GlcN6P [5]
G7U A12C C50G C61A	0.000187 ± 7.2e-05 s⁻¹	–	–	0.000332 ± 0.00012 s⁻¹	–
A6G C8A C58U	< 1e-05 s⁻¹	–	–	< 1e-05 s⁻¹	–
A14G A15G G66U	0.0002 ± 4.3e-05 s⁻¹	–	–	0.0089 ± 0.0018 s⁻¹	0.00252 ± 0.0011 s⁻¹
G32U A48U C58U C68U	< 1e-05 s⁻¹	–	–	–	–
G7A A14G U49C	< 1e-05 s⁻¹	–	–	< 1e-05 s⁻¹	–
C10A A53G G60C	< 1e-05 s⁻¹	–	–	–	–
G29C G44U	< 1e-05 s⁻¹	< 1e-05 s⁻¹	< 1e-05 s⁻¹	–	–
G43U G51A	< 1e-05 s⁻¹	–	< 1e-05 s⁻¹	–	–
A6U C16U U30C	< 1e-05 s⁻¹	–	–	–	–
A15U G43U	< 1e-05 s⁻¹	< 1e-05 s⁻¹	< 1e-05 s⁻¹	< 1e-05 s⁻¹	–
A15G G41A U57G	< 1e-05 s⁻¹	–	–	–	–
G7C G32A	< 1e-05 s⁻¹	< 1e-05 s⁻¹	–	< 1e-05 s⁻¹	–
C58A G63U	< 1e-05 s⁻¹	< 1e-05 s⁻¹	< 1e-05 s⁻¹	–	< 1e-05 s⁻¹
G43U U54A	< 1e-05 s⁻¹	–	–	6.37e-05 ± 2e-05 s⁻¹	–
A15G A48U U55C	< 1e-05 s⁻¹	–	–	0.000412 ± 8.4e-05 s⁻¹	–
G41U U46A U49C C71G	< 1e-05 s⁻¹	–	–	–	–
C11U U30C C50U	< 1e-05 s⁻¹	–	–	< 1e-05 s⁻¹	–
C11A G44C	< 1e-05 s⁻¹	< 1e-05 s⁻¹	< 1e-05 s⁻¹	–	< 1e-05 s⁻¹
C11A A12C A64C	< 1e-05 s⁻¹	–	–	< 1e-05 s⁻¹	< 1e-05 s⁻¹
C11A G44U U54C	< 1e-05 s⁻¹	–	–	–	< 1e-05 s⁻¹
A14U G37A G43U C68G C70G	< 1e-05 s⁻¹	–	–	–	–
C16G G29U G32A	7.82e-05 ± 1.9e-05 s⁻¹	–	–	0.0042 ± 0.0009 s⁻¹	–
A12U A33G G63A	< 1e-05 s⁻¹	–	–	–	–
A14U A52C	< 1e-05 s⁻¹	< 1e-05 s⁻¹	–	–	–
C10G A15G A64G	< 1e-05 s⁻¹	–	–	–	–

Variant	self-cleavage kobs at 40 uM GlcN6P [1]	self-cleavage kobs at 160 uM GlcN6P [2]	self-cleavage kobs at 640 uM GlcN6P [3]	self-cleavage kobs at 10000 uM GlcN6P [4]	self-cleavage kobs at 2500 uM GlcN6P [5]
C34A U54A G62U G63U	< 1e-05 s⁻¹	–	< 1e-05 s⁻¹	< 1e-05 s⁻¹	–
A6G C8U U57C C67U	< 1e-05 s⁻¹	–	–	< 1e-05 s⁻¹	–
C16U U31G C50G C70A	0.000109 ± 2.3e-05 s⁻¹	–	–	6.25e-05 ± 1.3e-05 s⁻¹	–
A33U G41A U46C	< 1e-05 s⁻¹	–	–	< 1e-05 s⁻¹	–
C34U A52C	< 1e-05 s⁻¹	< 1e-05 s⁻¹	< 1e-05 s⁻¹	< 1e-05 s⁻¹	< 1e-05 s⁻¹
A12U G40A G63C	< 1e-05 s⁻¹	–	–	–	–
A33U G38C G40C U65A C70G	< 1e-05 s⁻¹	–	–	< 1e-05 s⁻¹	< 1e-05 s⁻¹
G7U C11G A12C A42U	< 1e-05 s⁻¹	–	–	–	< 1e-05 s⁻¹
G13U C50G C70G	7.6e-05 ± 2.2e-05 s⁻¹	0.000214 ± 5.6e-05 s⁻¹	8.28e-05 ± 1.7e-05 s⁻¹	6.1e-05 ± 1.2e-05 s⁻¹	0.000166 ± 3.6e-05 s⁻¹
C61U C68G C70A	< 1e-05 s⁻¹	–	–	–	–
A36G C50G C68U	0.000269 ± 0.0001 s⁻¹	0.000434 ± 0.00013 s⁻¹	0.000436 ± 0.00017 s⁻¹	0.000205 ± 5.4e-05 s⁻¹	9.73e-05 ± 3.6e-05 s⁻¹
C16G G44U U65A	< 1e-05 s⁻¹	–	–	–	< 1e-05 s⁻¹
A15G U30C C67A	0.000291 ± 6.8e-05 s⁻¹	0.00105 ± 0.00028 s⁻¹	0.00103 ± 0.00029 s⁻¹	0.0108 ± 0.0031 s⁻¹	0.00517 ± 0.0012 s⁻¹
C10A C16A G51U C68G C71A	7.7e-05 ± 2e-05 s⁻¹	–	0.00052 ± 0.00016 s⁻¹	8.53e-05 ± 1.6e-05 s⁻¹	–
A6U G44C	< 1e-05 s⁻¹	< 1e-05 s⁻¹	< 1e-05 s⁻¹	–	< 1e-05 s⁻¹
G13U U31C A64U	< 1e-05 s⁻¹	–	–	–	–
A36G G60U	< 1e-05 s⁻¹	< 1e-05 s⁻¹	< 1e-05 s⁻¹	< 1e-05 s⁻¹	< 1e-05 s⁻¹
U56A G62C	< 1e-05 s⁻¹	–	–	< 1e-05 s⁻¹	< 1e-05 s⁻¹
A48U U55G G62C	< 1e-05 s⁻¹	–	< 1e-05 s⁻¹	< 1e-05 s⁻¹	–
G21U U30C U57C G66C C67U	< 1e-05 s⁻¹	–	–	–	–
C10U G43C	< 1e-05 s⁻¹	< 1e-05 s⁻¹	< 1e-05 s⁻¹	< 1e-05 s⁻¹	< 1e-05 s⁻¹
C16A U31A U47C G63A	< 1e-05 s⁻¹	–	–	–	–
G44U U49G	< 1e-05 s⁻¹	< 1e-05 s⁻¹	< 1e-05 s⁻¹	–	–
A14U G29U G35A	< 1e-05 s⁻¹	–	–	–	–
U55A U57C U69C C70U	< 1e-05 s⁻¹	–	–	–	–

Variant	self-cleavage kobs at 40 uM GlcN6P [1]	self-cleavage kobs at 160 uM GlcN6P [2]	self-cleavage kobs at 640 uM GlcN6P [3]	self-cleavage kobs at 10000 uM GlcN6P [4]	self-cleavage kobs at 2500 uM GlcN6P [5]
U30C C34U	< 1e-05 s⁻¹	–	< 1e-05 s⁻¹	–	–
C10G G63A	< 1e-05 s⁻¹	–	–	< 1e-05 s⁻¹	–
G13U G40U A48U C67A	< 1e-05 s⁻¹	–	–	< 1e-05 s⁻¹	–
G32A G51A	< 1e-05 s⁻¹	< 1e-05 s⁻¹	< 1e-05 s⁻¹	< 1e-05 s⁻¹	–
A15G G38A A42G	< 1e-05 s⁻¹	< 1e-05 s⁻¹	< 1e-05 s⁻¹	–	–
G13C A64C	< 1e-05 s⁻¹	< 1e-05 s⁻¹	–	< 1e-05 s⁻¹	< 1e-05 s⁻¹
G13C G35U G41U G43A G60C	< 1e-05 s⁻¹	–	–	–	–
G37C U46G A48U	< 1e-05 s⁻¹	–	–	< 1e-05 s⁻¹	–
G40U G41C A48U	< 1e-05 s⁻¹	–	–	–	–
A12C C58A G63A	< 1e-05 s⁻¹	–	–	–	–
C11A C50G G62U	0.000115 ± 2.8e-05 s⁻¹	–	–	0.000116 ± 2.6e-05 s⁻¹	–
A14U C34A G35C U45A C67U	< 1e-05 s⁻¹	–	–	–	–
G37C C50U C70A	0.00229 ± 0.00095 s⁻¹	–	–	–	–
C11G G13A G32U	< 1e-05 s⁻¹	–	–	–	–
C10U G32A G43A C71A	< 1e-05 s⁻¹	–	–	–	–
G35A A42G A52G C70U	< 1e-05 s⁻¹	< 1e-05 s⁻¹	–	–	< 1e-05 s⁻¹
G13U G32A G37C A42C	< 1e-05 s⁻¹	< 1e-05 s⁻¹	–	< 1e-05 s⁻¹	< 1e-05 s⁻¹
U47G U56G C70A	7.34e-05 ± 2.5e-05 s⁻¹	0.000192 ± 3.8e-05 s⁻¹	6.47e-05 ± 1.3e-05 s⁻¹	6.01e-05 ± 1.4e-05 s⁻¹	7.39e-05 ± 1.8e-05 s⁻¹
G7U U46G	< 1e-05 s⁻¹	< 1e-05 s⁻¹	< 1e-05 s⁻¹	< 1e-05 s⁻¹	< 1e-05 s⁻¹
U54C C68U	0.000265 ± 3.7e-05 s⁻¹	0.000635 ± 8.4e-05 s⁻¹	0.000868 ± 0.00023 s⁻¹	0.0106 ± 0.0023 s⁻¹	0.00216 ± 0.0005 s⁻¹
A12U A42G C50U C71G	< 1e-05 s⁻¹	–	–	< 1e-05 s⁻¹	–
A15U G38C G66U C67U	< 1e-05 s⁻¹	–	–	< 1e-05 s⁻¹	–
G13A A64U	< 1e-05 s⁻¹	–	< 1e-05 s⁻¹	< 1e-05 s⁻¹	< 1e-05 s⁻¹
